For series [1], the target named is T1, BmILF (Bombyx mori, UniProt A0A1U9WZ16 1-382).
T1 sequence: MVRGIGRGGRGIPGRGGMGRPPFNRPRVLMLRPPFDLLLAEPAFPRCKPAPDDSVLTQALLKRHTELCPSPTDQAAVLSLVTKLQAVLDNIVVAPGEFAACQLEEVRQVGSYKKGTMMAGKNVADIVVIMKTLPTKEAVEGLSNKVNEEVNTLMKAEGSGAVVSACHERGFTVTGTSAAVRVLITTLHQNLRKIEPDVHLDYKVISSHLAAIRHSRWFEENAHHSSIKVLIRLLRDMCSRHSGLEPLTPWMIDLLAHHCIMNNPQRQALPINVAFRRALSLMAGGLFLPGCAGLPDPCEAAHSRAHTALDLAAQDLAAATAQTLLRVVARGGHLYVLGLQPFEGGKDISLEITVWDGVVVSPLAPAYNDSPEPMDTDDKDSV
The experiment in a line: EMSA; Hill fit; EMSA: 20 ul, 2.5% glycerol, 0.05% NP-40, 5 mM MgCl2, 4 mM EDTA, RT 20 min; probes folded in 50 mM Tris-TAE pH 4.0 (also 6.0, 8.0). MST: NanoTemper buffer with 100 mM Tris pH 6.0, 2.93-6000 nM BmILF, 25 C. To be noted: protein: recombinant; label: 5' biotin; i-motif (folded by slow cooling at acidic pH).

In series [2] the target is T1, BmILF. The experiment in a line: MST; pH 6.0, 50 nM probe; EMSA: 20 ul, 2.5% glycerol, 0.05% NP-40, 5 mM MgCl2, 4 mM EDTA, RT 20 min; probes folded in 50 mM Tris-TAE pH 4.0 (also 6.0, 8.0). MST: NanoTemper buffer with 100 mM Tris pH 6.0, 2.93-6000 nM BmILF, 25 C. To be noted: protein: recombinant; label: Cy5; i-motif (folded at pH 4.0). In general terms: A gel shift assay detects complexes by their altered migration in electrophoresis.

Series [3] addresses T1, BmILF. As to the kind of experiment: EMSA; pH 4.0; EMSA: 20 ul, 2.5% glycerol, 0.05% NP-40, 5 mM MgCl2, 4 mM EDTA, RT 20 min; probes folded in 50 mM Tris-TAE pH 4.0 (also 6.0, 8.0). MST: NanoTemper buffer with 100 mM Tris pH 6.0, 2.93-6000 nM BmILF, 25 C. To be noted: protein: recombinant; label: 5' biotin; no i-motif by CD.
The target of series [4] is T1, BmILF. As to the kind of experiment: EMSA; EMSA: 20 ul, 2.5% glycerol, 0.05% NP-40, 5 mM MgCl2, 4 mM EDTA, RT 20 min; probes folded in 50 mM Tris-TAE pH 4.0 (also 6.0, 8.0). MST: NanoTemper buffer with 100 mM Tris pH 6.0, 2.93-6000 nM BmILF, 25 C. To be noted: protein: recombinant, label: 5' biotin.

Broadly, the Kd is the constant that tells how readily two partners part at equilibrium. On to TTGTTGCCCCGCCCCTCGGCCCCCTCGCGCCCCGCACTGG (structured_DNA) [BmPOUM2-WT i-motif (EMSA)], for which, in series [1], the Kd turned out to be 119 nM.

Take TTGTTGCCCCGCCCCTCGGCCCCCTCGCGCCCCGCACTGG (structured_DNA) [BmPOUM2-WT i-motif (MST)]: the Kd in series [2] turned out to be 430 nM.

Regarding CCCCGCGCCCCCCGCGTCCCCCGCACCCCC (structured_DNA) [BGIBMGA003213-WT i-motif (MST)], the Kd in series [2] stood at 367 nM.

Regarding CATTGCGATATCAGCGTTATCAGTATCAAT (ssDNA) [BGIBMGA003213-Mut], the binding result in series [3] is recorded as “no binding”.

As for GGGGGTGCGGGGGACGCGGGGGGCGCGGGG (structured_DNA) [BGIBMGA003213-G4], in series [4] (G4), the binding result is reported as “no binding”.

Take TTGTTGTACTGCTACTCGGATCACTCGAGCATCGTACTGG (ssDNA) [BmPOUM2-Mut]: in series [3], the binding result is given as “no binding”.

As for CAGTGGCGGCCATCCGTTTAATATTACCGGATGGCCGCGCGAT (structured_DNA) [Hairpin], the binding result in series [4] (hairpin) is recorded as “no binding”.

Turning to CCAGTGCGGGGCGCGAGGGGGCCGAGGGGCGGGGCAACAA (structured_DNA) [BmPOUM2-G4], the binding result in series [4] (G4) is “no binding”.

In the case of CCCCGCGCCCCCCGCGTCCCCCGCACCCCC (structured_DNA) [BGIBMGA003213-WT i-motif (EMSA)], in series [1], the dissociation constant (Kd) worked out at 78 nM.

Source of the values: PMC7059380, “In vivo visualization of the i-motif DNA secondary structure in the Bombyx mori testis”.
